# Laboratory results reported in the supplement of paper PMC10724198.
# ± gives the standard deviation of the averaged measurements.
# System: Saccharomyces cerevisiae
# Experiment: protein stability index of tFT-peptide fusion (C-terminal peptide) (PSI (0-1 scale)); higher = more stable (slower turnover)
# Conditions: temperature: 30 C
# Experimental: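 MPS profiling in S. cerevisiae of the yeast C-terminome library: the last 12 aa of each annotated ORF are fused to the C-terminus of a sfGFP-mCherry timer, after a GGGS linker. Cells are FACS-sorted into 8 mCherry/sfGFP bins and deep-sequenced. PSI runs from 0 (unstable) to 1 (stable); wild type and das1Δ backgrounds, two technical replicates each.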
# [1] = genetic background: das1 deletion
Sequence,protein stability index [1],protein stability index (genetic background: wild type)
HIDIPDFAKWDI [SUL2 C-terminal 12 aa],0.727 ± 0.013,0.719 ± 0.009
GGLDCKSNVFMR [PAC1 C-terminal 12 aa],0.697 ± 0.013,0.723 ± 0.0089
NNLHSYEKRLHN [YAR075W C-terminal 12 aa],0.69 ± 0.019,0.7 ± 0.015
EKWASQFGSSGS [SAP1 C-terminal 12 aa],0.702 ± 0.024,0.685 ± 0.014
DNFINSVKLNFR [SEC10 C-terminal 12 aa],0.6945 ± 0.0052,0.734 ± 0.022
YGLNIGRPDFYR [TAF10 C-terminal 12 aa],0.725 ± 0.016,0.7099 ± 0.0023
EAASDEHFSRVV [YGL185C C-terminal 12 aa],0.709 ± 0.02,0.733 ± 0.021
GWFEEVRDHKRH [SKY1 C-terminal 12 aa],0.731 ± 0.017,0.753 ± 0.022
KPLSKPAPDLDY [CWC25 C-terminal 12 aa],0.66 ± 0.024,0.676 ± 0.0075
IGPLAFLVFKTA [DYN2 C-terminal 12 aa],0.67 ± 0.02,0.18 ± 0.011
DEDEDDSTTKEP [GLC8 C-terminal 12 aa],0.679 ± 0.011,0.7 ± 0.026
EKIKKILSELKK [NKP1 C-terminal 12 aa],0.705 ± 0.022,0.715 ± 0.021
FSSSVMIIMKAS [NFT1 C-terminal 12 aa],0.5186 ± 0.0012,0.115 ± 0.0065
VHDQTNLELYYL [HUB1 C-terminal 12 aa],0.708 ± 0.0075,0.6895 ± 0.0058
QYDYELIQVQCS [PPN2 C-terminal 12 aa],0.431 ± 0.043,0.51 ± 0.032
YKDDEDDDIEMT [PDS5 C-terminal 12 aa],0.679 ± 0.011,0.685 ± 0.051
NLAGRKNSRDNE [LOT5 C-terminal 12 aa],0.681 ± 0.017,0.6772 ± 0.0027
TEISRHFIVVFV [YHR182C-A C-terminal 12 aa],0.306 ± 0.0088,0.351 ± 0.028
MERELIKEEYDN [PAA1 C-terminal 12 aa],0.702 ± 0.025,0.67 ± 0.031
FDLIKLALQRKK [AGX1 C-terminal 12 aa],0.7118 ± 0.0048,0.68 ± 0.04
DGVENTPVESQQ [NMD3 C-terminal 12 aa],0.6821 ± 0.0024,0.707 ± 0.0061

Sequence,protein stability index [1],protein stability index (genetic background: wild type)
NNGSSNNNTQNT [SNF5 C-terminal 12 aa],0.67 ± 0.014,0.673 ± 0.022
FWNCVDGHLKYD [INM1 C-terminal 12 aa],0.724 ± 0.0075,0.715 ± 0.043
YPVGQVDRDVCC [TAD3 C-terminal 12 aa],0.6955 ± 0.0022,0.685 ± 0.037
SEETKKSCCSGK [CUP1-1 C-terminal 12 aa],0.695 ± 0.01,0.757 ± 0.048
PRERLLSEYCSS [MET8 C-terminal 12 aa],0.71885 ± 0.00032,0.7199 ± 0.0033
SLKPSEKKLYYL [NTH2 C-terminal 12 aa],0.721 ± 0.0073,0.663 ± 0.02
VWLAAALPLAFI [PRM7 C-terminal 12 aa],0.58 ± 0.0063,0.56 ± 0.018
DLVAQQVVQDGH [MYO2 C-terminal 12 aa],0.7005 ± 0.0019,0.707 ± 0.019
FCTVAKIIQCFL [YDR396W C-terminal 12 aa],0.5838 ± 0.0053,0.4942 ± 0.0047
PAAVFAETLKHD [RPL4B C-terminal 12 aa],0.686 ± 0.016,0.705 ± 0.011
LSDSHYELNAES [PMT5 C-terminal 12 aa],0.712 ± 0.033,0.706 ± 0.044
FWTINDDYGFLT [YLR278C C-terminal 12 aa],0.757 ± 0.029,0.77104 ± 0.00063
IGELLEGIRMSI [BIT2 C-terminal 12 aa],0.694 ± 0.012,0.729 ± 0.091
ALAFSKIPSVFL [YMR153C-A C-terminal 12 aa],0.722 ± 0.035,0.687 ± 0.0091
RKELEKGKKNSK [YLR363W-A C-terminal 12 aa],0.694 ± 0.025,0.703 ± 0.054
RQNDKGAIKKSK [YEA4 C-terminal 12 aa],0.676 ± 0.019,0.719 ± 0.049
KNGKVDPLKNFK [DBP9 C-terminal 12 aa],0.701 ± 0.015,0.684 ± 0.026
LLNSRATQDVVC [VMA3 C-terminal 12 aa],0.6342 ± 0.0054,0.66 ± 0.0053
AEFLGSFDELVL [EEB1 C-terminal 12 aa],0.72333 ± 5e-06,0.719 ± 0.018
CLSDIAKVLRNQ [PBP4 C-terminal 12 aa],0.661 ± 0.0092,0.577 ± 0.015
DLLNKESEYLNI [FAR11 C-terminal 12 aa],0.705 ± 0.012,0.755 ± 0.061

Sequence,protein stability index [1],protein stability index (genetic background: wild type)
TPVIDFSLKLAH [BNA6 C-terminal 12 aa],0.693 ± 0.017,0.7 ± 0.026
LKITDDLARKGF [TGL2 C-terminal 12 aa],0.7205 ± 0.0035,0.666 ± 0.0096
SLNQPELINFKS [IZH4 C-terminal 12 aa],0.714 ± 0.017,0.71 ± 0.046
DKRNLLEILDFS [RRT13 C-terminal 12 aa],0.72 ± 0.021,0.695 ± 0.029
MKQLEKAGVRFE [FMP33 C-terminal 12 aa],0.6871 ± 0.0014,0.686 ± 0.014
GCVRSMLRDLQR [GCR2 C-terminal 12 aa],0.6733 ± 0.0057,0.686 ± 0.01
IEKSKSDRRKLL [YHR022C C-terminal 12 aa],0.728 ± 0.063,0.2695 ± 0.0021
GTKEYYKGYEYL [MRX16 C-terminal 12 aa],0.6984 ± 0.0016,0.6641 ± 0.0017
AETLLSQRSRDR [DNF2 C-terminal 12 aa],0.721 ± 0.028,0.692 ± 0.048
VTGSVPAYCDDD [ART5 C-terminal 12 aa],0.6825 ± 0.0031,0.694 ± 0.011
LISCCCCCFRRC [YNL097W-A C-terminal 12 aa],0.6974 ± 0.004,0.669 ± 0.016
ISNLPECLGNLC [ANR2 C-terminal 12 aa],0.6968 ± 0.0047,0.6926 ± 0.006
TFVDDKLKELPQ [PTP3 C-terminal 12 aa],0.719 ± 0.042,0.655 ± 0.0034
EDVEVPFITIHL [UBA1 C-terminal 12 aa],0.6884 ± 0.0057,0.683 ± 0.017
TPLPGLSWPFNE [YIL014C-A C-terminal 12 aa],0.74 ± 0.021,0.74 ± 0.061
GGNKQAPGLELG [YMR242W-A C-terminal 12 aa],0.6918 ± 0.0046,0.702 ± 0.006
SLENVAMLVYKK [TRM13 C-terminal 12 aa],0.698 ± 0.048,0.66 ± 0.026
FDAVTKTLEKYA [YKR070W C-terminal 12 aa],0.68 ± 0.019,0.6879 ± 0.0054
VACNPVAMADHQ [TUS1 C-terminal 12 aa],0.71 ± 0.033,0.677 ± 0.019
PISHVNNNDTHA [SLM3 C-terminal 12 aa],0.727 ± 0.014,0.688 ± 0.0079
MGIRLRYNVEPK [RPA135 C-terminal 12 aa],0.735 ± 0.041,0.663 ± 0.014

Sequence,protein stability index [1],protein stability index (genetic background: wild type)
HELIKKRWDDRK [NCE101 C-terminal 12 aa],0.712 ± 0.016,0.679 ± 0.018
ETGHISKDCPKA [GIS2 C-terminal 12 aa],0.698 ± 0.018,0.695 ± 0.013
TCEKSKCNCEKC [CRS5 C-terminal 12 aa],0.682 ± 0.012,0.69 ± 0.082
EILGTDEPTVRT [PGM1 C-terminal 12 aa],0.693 ± 0.015,0.7 ± 0.014
RLQQVRKNPYPF [OPI7 C-terminal 12 aa],0.7357 ± 0.0072,0.712 ± 0.032
KMVLSHMKEKKD [YGL140C C-terminal 12 aa],0.688 ± 0.011,0.682 ± 0.017
NPAARLDEDLYE [FRS2 C-terminal 12 aa],0.662 ± 0.053,0.707 ± 0.022
IQISDVSMSPSL [PEX31 C-terminal 12 aa],0.6811 ± 0.00011,0.717 ± 0.019
RDLFEIYQKMMQ [MUK1 C-terminal 12 aa],0.725 ± 0.02,0.706 ± 0.056
GAAIAGAAAMLL [TIR3 C-terminal 12 aa],0.718 ± 0.014,0.713 ± 0.022
KTATTLPGRRFV [LUC7 C-terminal 12 aa],0.6923 ± 0.0011,0.704 ± 0.017
RYVIFQSCGLIL [MRX8 C-terminal 12 aa],0.657 ± 0.031,0.683 ± 0.012
DFNDSSNLKKTR [CLN3 C-terminal 12 aa],0.7398 ± 0.0057,0.693 ± 0.039
GKRIIGMLHLDS [PUF4 C-terminal 12 aa],0.685 ± 0.037,0.699 ± 0.01
QAKLTAATNAKQ [PDC1 C-terminal 12 aa],0.698 ± 0.018,0.716 ± 0.035
RLYDRINGKPHD [MRP10 C-terminal 12 aa],0.671 ± 0.014,0.668 ± 0.021
EKKSKKEKKEKK [NOP58 C-terminal 12 aa],0.747 ± 0.07,0.717 ± 0.04
MEKSDRYIQETW [TAH18 C-terminal 12 aa],0.7032 ± 0.0048,0.691 ± 0.009
FSNAGVEMQIRK [GNA1 C-terminal 12 aa],0.702 ± 0.0064,0.736 ± 0.04
